According to US7087393:

Target: rabbit anti-CS198 peptide antiserum raised against the unconjugated peptide of SEQUENCE ID NO 44 (13 week bleed)
Test: Western blot competition: antiserum pre-incubated overnight at 4 C with varying concentrations of peptide immunogen before exposure to the filter carrying the 45 kD band

- concentration of peptide at which antibody binding to the band was inhibited: 2.6 µM
Binder: RLQKSQSSDLLERERESVLRREQEVAEERRN [CS198 synthetic peptide of SEQUENCE ID NO 44]
